# Results taken from the DeepSol protein solubility set.
# Experiment: soluble on expression in E. coli; label from the status in PepcDB or PDB records
row,Sequence,soluble on expression in E. coli
1,MVKSMIAVISDIHSNLEALNAVLNDIKNRGIKKIFCLGDIVGYGANPNECVELIRDLNCLSVVGNHDYGVLGKESLDYFNKYGAIAILWTKKVIKNENLKFLDSLPLIIEENIKGKKVIFSHANPKHPEIWEYLFPDYVDDVFNYGDLIFVGHSHIPFVNSEEGNLLLHEGKIYLDEDKKYLINPGSVGQPRDGINKASYCIFDEKDFKIEIVRVEYDIKKAYEKIVKNRLPEWLGERLFLGR,soluble
2,MADPWLSIIGLGEDGPAGLPDASRAALEAAEVVVGGPRHLALVDARARGMEWPVPFDPAPVLALRGRPVAVLASGDPFWHGAGGSLAAALSPGEWRAYPAPGVVALAAARLGWRQEELLALGLHAAPFERLLPELAPGRRGVCTLRDGPAAGALAAFLAAEGWGESRLWVMEALGGPRERVRATTAGAFSLTDVAAPVTVAFEAEGGRAQPRSAGLPDSLFAHDGQITKAPVRALTLAALAPRRGEILWDLGAGSGSVSVEWCLAGGRAVAVELRPERAANIRANAARFALPLEVVEGRALDNLPALPAPDAIFVGGGFDEALFAALPPTARLVVNAVTLETEALLAALQARHGGELLRIELARAAPLGRMRGWEAARPVVQWSLVR,not soluble
3,RGIPQITGPTTVNGLERGSLTVQCVYRSGWETYLKWWCRGAIWRDCKILVKTSGSEQEVKRDRVSIKDNQKNRTFTVTMEDLMKTDADTYWCGIEKTGNDLGVTVQVTIDPAPVTQEETSSSPT,soluble
4,MGSDKIHHHHHHMVDDVFGNAIASATFRTHSDSLVVDSLATVDLTASAWPVFDIAASAINYPFLYADRDGTDLGALAVQQFDDVDQRLRTWMRGFVAGEPTDTLSLLKDISLGIASSISYQSREEEGTQAPLTTLDRGWGSCRDFAVLFAEAVRSLGFGARIVSGYLFNPNRALTGSTDSGSTHAWAEVFVPGAGWITLDPTNRSMGGANLIPVAVTRDIAHAVPVSGSFIGGSNGLPVNERGRRSQSNRPGLSGAAVERWIDVAQFSRCRAAPLVLNRPEPLTR,not soluble
5,MLTRCQARLLGLTSGEDGGASGSSTSSVPQSPTGVATSGLPRVSGYSIACEASSATSAKPGDPPPFIRRLSLAATSSSSASTAARGCRTNSFFEPSASASKAALHVNSGSGGDGGGGRARLGARPTDAPLSKAQAAIDYWTAASTTAGPSIWFAKDSASPWRALHVSSPKAAVHVTGSFGATLKSADGSSLAGCSARLTAAQLRVRWCGVTRNCSSLHASTRATANGGGAPRASANSVHGVHTAQLSIAACPASTPPRTEFVIEARAGIATSGGDSTGVAQQTDRALAPLNVASRRSLALFTSPFYADVAAPALSASAAALGATEAAALLPVMHQISTQRAAAAALALRQRKEDVRAQRQRRICHEVHNQVYMKAHEVRMRLLFGLSGTDSDAATPAPSGTLAQGHAVAPSAPSKAALGEDHIAADEEAYLQSLNPSKSDEEAKVLRVVASIDAALRRHLASAYKDASQPTFPSESSSADQRVRAADAVADHHHHHHFTDGFAARQPAILEAVIADATRRVESFTGELLPYQQEGVRWLLRLTAVEHMGGILADDMGLGKTAQTVVYLSCYKDMVERVVQGLLEELEQRHARLCQRALGLTVTATGSGALAREAGSVEEGEMPSWLTWCAEATAKGEYISRRTEGRLQRSSSTIQPLMRGVAHGDSIAASAPLAATVEPASTAATPELAAARAWWLHKTCEAGEAMAVAAGGGQGRGRHSCG,not soluble
6,SNAMAAKKPLFEVIASKIKDSINRDEYKTGMLMPNETALQEIYSSSRTTIRRAVDLLVEEGLVVRKNGVGLYVQPKLTAQNILEMTGVMKNDTNENLKKDIKDFYIRKAGKFYAEIFGMKENELVYSIKFVQKSEHGATLDRLILPLGLYPDLQAKDFQIINIIELVNSGKYKLFELEQELQLILAGNEQIKNMHLNENDPVFKLSSVFYAENDMPIAIQYHYEDAESTKYVVDFN,soluble
7,MEYGAICTPFIFVVYAKSKYLCVLISNEMGKNKLEKFADMASYPHVFEYPYSAVDNVPFDMKGKWHQEFFGNDHPIVLELGCGRGEYTVGLGRMFPDKNFIAVDIKGSRMWTGATESLQAGMKNVAFLRTNIEIIERFFAAGEVSEIWLTFSDPQMKKATKRLTSTYFMERYRKFLKPDGIIHLKTDSNFMFTYTKYMIEANQLPVEFITEDLYHSDLVDDILSIKTYYEQQWLDRGLNIKYIKFRLPQEGVLQEPDVEIELDPYRSYNRSKRSGLQTSK,not soluble
8,MGKATWRQVWERARALAGAAALAVLAGCAAPGAQDPGQARNTAREAYIYAYPMLYHYRSMYEQAIDTASPAYLGGFGVFQHRAEPYTPQSVDVATPNVDTLYSRAWLDLRAEPWVLSLPAVPKSRYNAFQLVDMYTYNLAYLGTRATGFGSGHYLIAGPGWTGPVPKGITQVVRADTDFVAVLGRTALNGPADIKAVHALQARYGLRPLSAYTGTAAPAGAPPVDWLPWNEQRASSIGFIAYLNQLLAHTQPQPESEADMMARFARIGVAPGRDFEPARLDAATRRAMDAGIVDAQQAIEQGARHAAAPATPASLYGSREQLGGDYLKRAVAAAVGIYGNTADEAIYLTIGEDAQGRPLDGARAYELRFAPGRQPPVRFFWSISVYALPARGLAENPIDRYAIGSRTKGIKRGRDGSLTVYLQHDAPARAHAPNWLPTPAGPFVVVARFYGPQPALRDGAWVMPALVPARLEHHHHHH,not soluble
9,MGSDKIHHHHHHMNVAIIGCGYVGYQVAQYWQQKMNFVVSTTTTSPERVPALQSVSQRVFVTSGNDLDSLKSVLHNQDVVLLSVGAKGAEVYEETYLQTAQNLVSCLQQNPSVKQLIYTGSYAVYGDRNGVWVDEETPLAPANLNAQILRKTEDILLSASSENLRVCIFRLGGIYGPGRELLKIFSRYSGTNRPGGEDITNWIHLDDIVGAIEFARNRRLQGIYNLVDDAHLTSRDLLDSLFEKHNLPKVIWDTTVKSTRPYNAWVSNEKLKEAGYQLIHPQMIF,not soluble
10,MAHHHHHHMEAKAQAYLEKLSNSLQAAGRTATADVLKRAKEEFERSLWCEMTDDLLLAVRDPLVLESAYELHENVLKVTRMDMSPTAYVKLLHYICFCPNSTLQKALDLLNGAVVALSTSSEQGENMANCIRALLLLDSYNDKSSPAGTAASEASRILDKVESFIHSKQMHEVEPVLAALHCQARGKDYEIRQQYTKYYSNAFETVKSAERAEMPIIESDLLSLAYKAALSALLSEEIYNFGKFLNERHFTERLADSVQHAWILEWLRLCNDGKVEEFEQYAVAHKAEMAASPILSEFFPSITKKVRLMALLHLVFYTPFNERTFTFDVIARRCAVDEERVEPLLLAALAQGIIMGKIDGLTQEVHITWVEPRVLSLQEVKELAVHVSRWKEKTLGLMQCMKEAAQETHN,soluble
11,MKKPTSAPRSKAFGKQRRKTREELNQEARDRKRLKKHRGHAPGSRAAGGNSASGGGNQNQQKDPRIGSKTPVPLGVTEKVTQQHKPKSEKPMLSPQAELDLLETDERLDALLERLEAGETLSAEDQAWVDAKLDRIDELMQKLGLSYDDDEEDDEEDEKQEDMMRLLRGGN,not soluble
12,MGSDKIHHHHHHMHGELGKENELDGEIFRQGPVEIRDSRQKVIHSGFSPESQIIEGINAIIKLAHSEEESNLVGIMMSHFMFESIHPFYDGNGRTGRYLLGIQLSKILSPATALTMSSAINQFRNKYYKAFHAVEHRLNRGDGTPFVISMLELLIAAQEGLIENIKQRIDFLASLEDAIKTLRGTNSFKNHQINLLYILGQIQLFGKDETLSLESAAKFLKVSKATATRYFRTLREMELVHEVSKRPLRFALTDKGREIVGLEVKI,not soluble
13,MRCPWRKTRRHSDNGWYGPRNQIRPDDHRLHRKVRKSRGDSRRAGNGSPRARCFEGAQRRGKSDGLSECGRMKNLLEMVELVRGKRMKIAVGAAEDEEVLKAVARAKEEEIVDPVLFGKRKDIETLVERMNLELEAEIVHVEDPFEAVRKAVESVSRNETQILMKGKIKTSDLFSVFLKKEYGLRTGRTLSAVSVHEVPGYHKILIISDGGLVISPNLQQRMDIVENSILVARALGIEKPKIALLGTGDLKSPLTLEIAALSKIFQQRNDCIVDGPLTLDLAISEELASKAGNSPVAGDADILIVPSIETGNILSKSLVYMARGRAAIVVVGGRVPVVLTSRADDEETRFLSIALSVLVAQKKG,soluble
14,MSRFSITYKHDFYGGVEGEVTGGSALLCCPQEDIKSFLSEPVYSRLCASAWALTIECPSDPRTPSGTPGPLGTVPWRWGSLGMGGPLLPTAPTPRERERRGGQPAQRWSAEEGQEGSADGEAEATQELILAVVQEGAEGQCQGQGRKLLLQRGAHDPVTVHRAFKKEVGLGQVQLIPKGGTGVLHPGAGLKLHTHLQLVTGFVVIRRMHACLAQRYCSQPVVQCVFPS,not soluble
15,MENKEISYEIIDFSGETNVQFRTSVDPGSYIPTHWHRAIEIIYMQEGSLDVIVESESFTIYKGDCILVNGNVLHSTKCTAPNTAILLQIPLNFMEKYIPNLGQLIFLWDYRTEDPVKKTKLMMLKTTLEQLQVINDIQPDGYLLRFNSLIFELMFQLYHNFSVQVFPQDINHKKKEMDRLDP,not soluble
16,MRRVGESSTGDRKALRSGLKRQGSADEDDIESIFSGIGSARINEPKAKKDDDESNEEKYFSVGKDGRRYHEGLPVYTTEELHLGDGGGDTEDCPIYCDCCL,not soluble
17,MSEDGEISLSPNSAALMDGLDDFIIDKNCSGIIPNEDLERETPSADDDAEVKTSSNWAKNMRKRMFGEQCDEPEESEKKRRRTNCCFNCRGGDHSIAQCPEPKNFAEIRKNKLEFMNDKQQQHQPTGRISQVTEQQQEAKFKPGRLSQNLRKALSLGPDDIPEWVYRMRRLGFYRGYPPGYLRKSLKREFATLKIYSEDHNQEEVDNDDDEEARPAPTIQSEKVHFYMGFNKTYGALRDRERGRFEVPPFDIFCEMLQTEVARDHEGTEKIRIREERHQRSELRKIREQQKEEEEQQQRDSAEKVEKEVTVDQTISEVAAAAAAVEEKPGTPEPVGRMGESISEFIGTPIFSRRDVTGTWIEDTVPSLEAFSVGIVPFEAKEEEKPRGIFKKIMSTLKGITGRNSGDDEMKKKE,not soluble
18,MSNPLFPTESAALTLDGPVGPLDVAVDLPEPDVAVQPVTAIVCHPLSTEGGSMHNKVVTMAARALRELGITVVRFNFRSVGTSAGSFDHGDGEQDDLRAVAEWVRAQRPTDTLWLAGFSFGAYVSLRAAAALEPQVLISIAPPAGRWDFSDVQPPAQWLVIQGDADEIVDPQAVYDWLETLEQQPTLVRMPDTSHFFHRKLIDLRGALQHGVRRWLPATP,soluble
19,MPSLLSSRIRNAEFAKKIVTDPAKLVPYFKNGDYVGWSGFTGVGYPKMIPNALARHVEENNLQGKLRFKLFVGASGGADTECKWAELNMIERRCPHQVGKPISKGINSGRIQFFDKHLSMFPQDLLYGYYTRNRESNTIDTAIIEATAITEDGGIVPGASVGASPELMQLAEKIIIEVNTAIPSFEGLHDIVEIPNPPHRTPININRVDDRIGKPYIKVDPKKVIGIVEADYGDITCANSPQDETSQAIAGHLVDFFHHEVSVGRLPKNLHPLQSGIGNIANAIIGGLAHSPFKDLEVWTEVLQDTFLPLFDSEKLRFATATSTRFSPQGFEKFYSNYDYYKERILLRPQVISNHPEIIRRLGCIAMNTPVEADIYAHANSTNVLGSRMLNGLGGSADFLRNAKLSIMHTPSVRPSKKDPTGITCIVPMATHVDQTEHDLDILVTEQGLADLRGLSPTERAREVIDKCAHPDYKPLLREYFDIAENYCLARGAGHEPHILANAFKMQLNLLEKGTMKIDHW,soluble
